According to patent US20040205843A1 (NORTH CAROLINA STATE UNIVERSITY, published 2004):
Where a chain is given by its changes, count along the chain named. Like-named read-outs stand apart in the source and are kept apart here.

T1: Full length GST-AL1 1-352 (tomato golden mosaic virus (TGMV), UniProt P03567 1-352)
T1 sequence: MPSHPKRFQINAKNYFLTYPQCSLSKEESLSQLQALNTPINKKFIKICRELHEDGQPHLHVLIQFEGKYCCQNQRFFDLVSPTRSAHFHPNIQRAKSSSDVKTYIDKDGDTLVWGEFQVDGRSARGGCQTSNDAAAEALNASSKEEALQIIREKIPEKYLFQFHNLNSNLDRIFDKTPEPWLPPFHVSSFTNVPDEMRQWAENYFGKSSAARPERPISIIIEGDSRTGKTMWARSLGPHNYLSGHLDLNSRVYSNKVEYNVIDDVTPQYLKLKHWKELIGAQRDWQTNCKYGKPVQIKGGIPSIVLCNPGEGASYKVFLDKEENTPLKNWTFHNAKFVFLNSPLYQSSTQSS

T2: AL1 160-352 (tomato golden mosaic virus (TGMV), UniProt P03567 160-352)
T2 sequence: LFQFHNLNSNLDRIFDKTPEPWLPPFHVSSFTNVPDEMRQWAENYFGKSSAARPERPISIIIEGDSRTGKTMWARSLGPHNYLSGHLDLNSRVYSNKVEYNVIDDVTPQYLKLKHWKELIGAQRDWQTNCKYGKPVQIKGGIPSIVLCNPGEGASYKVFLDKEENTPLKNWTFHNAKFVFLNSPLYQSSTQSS

T3: AL1 119-352 (tomato golden mosaic virus (TGMV), UniProt P03567 119-352)
T3 sequence: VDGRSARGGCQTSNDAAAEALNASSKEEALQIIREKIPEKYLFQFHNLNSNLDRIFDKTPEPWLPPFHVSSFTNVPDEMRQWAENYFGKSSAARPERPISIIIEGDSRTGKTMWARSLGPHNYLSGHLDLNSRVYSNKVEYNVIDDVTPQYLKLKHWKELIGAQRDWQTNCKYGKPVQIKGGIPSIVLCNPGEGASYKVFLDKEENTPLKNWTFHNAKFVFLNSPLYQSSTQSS

B1: AL1 AAA136 (Leu) fused to the Gal4 activation domain (pNSB785) (other)
chain: T1 sequence with A134L, A135L, A136L
B2: AL1 D120 (Ala14) fused to the Gal4 activation domain (pNSB871) (other)
chain: T1 sequence with D120A
B3: AL1 E--N140 + KEE146 (Ala4+5) fused to the Gal4 activation domain (pNSB757) (other)
chain: T1 sequence with E137A, N140A, K144A, E145A, E146A
B4: AL1 FQ118 (Ala13) fused to the Gal4 activation domain (pNSB872) (other)
chain: T1 sequence with F117A, Q118A
B5: AL1 K144 fused to the Gal4 activation domain (pNSB916) (other)
chain: T1 sequence with K144A
B6: AL1 KEE146 (Ala5) fused to the Gal4 activation domain (pNSB894) (other)
chain: T1 sequence with K144A, E145A, E146A
B7: AL1 N-DR172 (Ala9) fused to the Gal4 activation domain (pNSB762) (other)
chain: T1 sequence with N169A, D171A, R172A
B8: AL1 Q-HN165 (Ala8) fused to the Gal4 activation domain (pNSB761) (other)
chain: T1 sequence with Q162A, H164A, N165A
B9: AL1 REK154 (Ala6) fused to the Gal4 activation domain (pNSB759) (other)
chain: T1 sequence with R152A, E153A, K154A
B10: AL1 RS-R125 (Ala1) fused to the Gal4 activation domain (pNSB786) (other)
chain: T1 sequence with R122A, S123A, R125A
B11: AL1 1-180 (other)
chain: MPSHPKRFQINAKNYFLTYPQCSLSKEESLSQLQALNTPINKKFIKICRELHEDGQPHLHVLIQFEGKYCCQNQRFFDLVSPTRSAHFHPNIQRAKSSSDVKTYIDKDGDTLVWGEFQVDGRSARGGCQTSNDAAAEALNASSKEEALQIIREKIPEKYLFQFHNLNSNLDRIFDKTPEP
B12: AL1 134-352 (other)
chain: AAAEALNASSKEEALQIIREKIPEKYLFQFHNLNSNLDRIFDKTPEPWLPPFHVSSFTNVPDEMRQWAENYFGKSSAARPERPISIIIEGDSRTGKTMWARSLGPHNYLSGHLDLNSRVYSNKVEYNVIDDVTPQYLKLKHWKELIGAQRDWQTNCKYGKPVQIKGGIPSIVLCNPGEGASYKVFLDKEENTPLKNWTFHNAKFVFLNSPLYQSSTQSS
B13: AL1 147-352 (other)
chain: ALQIIREKIPEKYLFQFHNLNSNLDRIFDKTPEPWLPPFHVSSFTNVPDEMRQWAENYFGKSSAARPERPISIIIEGDSRTGKTMWARSLGPHNYLSGHLDLNSRVYSNKVEYNVIDDVTPQYLKLKHWKELIGAQRDWQTNCKYGKPVQIKGGIPSIVLCNPGEGASYKVFLDKEENTPLKNWTFHNAKFVFLNSPLYQSSTQSS
B14: TGMV AL1, wild type, full length, untagged (other)
chain: T1 sequence
notes: also called Rep; authentic AL1
B15: AL1 E-N140 (Ala4), full length, untagged (other)
chain: T1 sequence with E137A, N140A
B16: AL1 K-E179 (Ala10), full length, untagged (other)
chain: T1 sequence with K176A, E179A
B17: AL1 KEE146 (Ala5), full length, untagged (other)
chain: T1 sequence with K144A, E145A, E146A
B18: AL1 N-DR172 (Ala9), full length, untagged (other)
chain: T1 sequence with N169A, D171A, R172A
B19: AL1 Q-HN165 (Ala8), full length, untagged (other)
chain: T1 sequence with Q162A, H164A, N165A
B20: AL1 REK154 (Ala6), full length, untagged (other)
chain: T1 sequence with R152A, E153A, K154A
B21: GST-AL1 119-180 (other)
chain: VDGRSARGGCQTSNDAAAEALNASSKEEALQIIREKIPEKYLFQFHNLNSNLDRIFDKTPEP
B22: AL1 EKY159 (Ala7) fused to the Gal4 activation domain (pNSB760) (other)
chain: T1 sequence with E157A, K158A, Y159A
B23: AL1 1-168 (other)
chain: MPSHPKRFQINAKNYFLTYPQCSLSKEESLSQLQALNTPINKKFIKICRELHEDGQPHLHVLIQFEGKYCCQNQRFFDLVSPTRSAHFHPNIQRAKSSSDVKTYIDKDGDTLVWGEFQVDGRSARGGCQTSNDAAAEALNASSKEEALQIIREKIPEKYLFQFHNLNS
B24: AL1 1-158 (other)
chain: MPSHPKRFQINAKNYFLTYPQCSLSKEESLSQLQALNTPINKKFIKICRELHEDGQPHLHVLIQFEGKYCCQNQRFFDLVSPTRSAHFHPNIQRAKSSSDVKTYIDKDGDTLVWGEFQVDGRSARGGCQTSNDAAAEALNASSKEEALQIIREKIPEK

What was measured:
[1] = biological target: T4, Maize Rb (amino acids 214-866) fused to the Gal4 DNA binding domain (Zm214C) (maize)
T4 sequence (P04386 1-147): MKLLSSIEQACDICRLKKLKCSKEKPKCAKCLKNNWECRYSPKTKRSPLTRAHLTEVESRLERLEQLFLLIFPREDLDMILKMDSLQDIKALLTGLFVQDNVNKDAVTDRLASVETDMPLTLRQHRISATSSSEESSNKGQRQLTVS

[2] = biological target: T5, Wild type TGMV AL1 fused to the Gal4 DNA binding domain (pNSB736) (tomato golden mosaic virus (TGMV))
[3] = biological target: T5, Wild type TGMV AL1 fused to the Gal4 …; remark: listed apart in the source
[4] = biological target: T4, Maize Rb (amino acids 214-866) fused to …; remark: listed apart in the source
[5] = biological target: T5, Wild type TGMV AL1 fused to the Gal4 …; experiment: yeast two-hybrid, beta-galactosidase activity
[6] = biological target: T1, Full length GST-AL1 1-352; experiment: GST co-purification from insect cells, immunoblot
[7] = biological target: B14; experiment: GST co-purification from insect cells, immunoblot
AL1 147-352 = biological target: B13; experiment: GST co-purification from insect cells, immunoblot
AL1 160-352 = biological target: T2, AL1 160-352; experiment: GST co-purification from insect cells, immunoblot
AL1 119-352 = biological target: T3, AL1 119-352; experiment: GST co-purification from insect cells, immunoblot
AL1 134-352 = biological target: B12; experiment: GST co-purification from insect cells, immunoblot
[8] = biological target: T1, Full length GST-AL1 1-352; experiment: GST co-purification on glutathione-sepharose from insect cells, immunoblot

B1
Rep/Rb (Rb binding activity relative to wild type) [1]: 8 relative to wild type (100)
oligomer. (oligomerization activity relative to wild type) [2]: 30 relative to wild type (100)

B2
oligomer. (oligomerization activity relative to wild type) [3]: 67 relative to wild type (100)

B3
Rep/Rb (Rb binding activity relative to wild type) [1]: 45 relative to wild type (100)
oligomer. (oligomerization activity relative to wild type) [2]: 88 relative to wild type (100)
oligomer. (oligomerization activity relative to wild type) [3]: 88 relative to wild type (100)

B4
Rep/Rb (Rb binding activity relative to wild type) [1]: 23 relative to wild type (100)
oligomer. (oligomerization activity relative to wild type) [2]: 95 relative to wild type (100)
oligomer. (oligomerization activity relative to wild type) [3]: 95 relative to wild type (100)

B5
RBR1 interactions, percent of wild type levels [4]: 42 % of wild type

B6
RBR1 binding activity, percent of wild type [4]: 16 % of wild type
AL1 interactions, percent of wild type AL1/AL1 mediated activation [5]: 51 % of wild type

B7
oligomer. (oligomerization activity relative to wild type) [3]: 31 relative to wild type (100)

B8
oligomer. (oligomerization activity relative to wild type) [3]: 102 relative to wild type (100)

B9
Rep/Rb (Rb binding activity relative to wild type) [1]: 69 relative to wild type (100)
oligomer. (oligomerization activity relative to wild type) [2]: 57 relative to wild type (100)
oligomer. (oligomerization activity relative to wild type) [3]: 57 relative to wild type (100)
fold reduction of RBR1 binding activity against wild type [4]: 2 fold

B10
Rep/Rb (Rb binding activity relative to wild type) [1]: 20 relative to wild type (100)
oligomer. (oligomerization activity relative to wild type) [2]: 27 relative to wild type (100)
oligomer. (oligomerization activity relative to wild type) [3]: 27 relative to wild type (100)

B11
binding result [6]: binds

B12
binding result [6]: binds

B13
binding result [6]: binds

B14
binding result [6]: binds

B15
binding result [6]: binds

B16
binding result [6]: binds

B17
binding result [6]: binds

B18
binding result [6]: binds

B19
binding result [6]: binds

B20
binding result [6]: binds

B21
binding result [7]: binds
binding result (AL1 147-352): no binding
binding result (AL1 160-352): no binding
binding result (AL1 119-352): binds
binding result (AL1 134-352): binds

B22
Rep/Rb (Rb binding activity relative to wild type) [1]: 31 relative to wild type (100)

B23
binding result [8]: no binding

B24
binding result [8]: no binding
